Experiment: soluble on expression in E. coli; label from the status in PepcDB or PDB records

**Q.** For “MGSDKIHHHHHHMAPEDWLRAETQGDIVALVHSHPGGQPYLSDVDRRLQVQSDLPWWLVCAGQVHKFRCVPHLTGRHYKHGVFDCYTLFRDAYHLAGIDMPDFHRDDDWWRHGDNLYLDNLETTGFYRVSAASAQPGDVLICCFGSSVPNHAAIYCGDGELLHHIPEQLSKRERYTDKWQRRTHSIWRHRAWRASAFTGICNDFAAASACR”, which “soluble on expression in E. coli” value is on record?
**A.** Its value is “not soluble”.

**Q.** For “MSLKKFYHLVVRILSKMITPQVIDKPHIVFMMTFPEDIKPIIKALNNSSYQKTVLTTPKQAPYLSELSDDVDVIEMTNRTLVKQIKALKSAQMIIIDNYYLLLGGYNKTSNQHIVQTWHASGALKNFGLTDHQVDVSDKAMVQQYRKVYQATDFYLVGCEQMSQCFKQSLGATEEQMLYFGLPRINKYYTADRATVKAELKDKYGITNKLVLYVPTYREDKADNRAIDKAYFEKCLPGYTLINKLHPSIEDSDIDDVSSIDTSTLMLMSDIIISDYSSLPIEASLLDIPTIFYVYDEGTYDQVRGLNQFYKAIPDSYKVYTEEDLIMTIQEKEHLLSPLFKDWHKYNTDKSLHQLTEYIDKMVTKEGGSHHHHHH”, which “soluble on expression in E. coli” value is on record?
**A.** The value was “soluble”.

**Q.** With “MSLRSTAVLALLLCAGQVFALPVNSPMTKGDTKVMKCVLEVISDSLSKPSPMPVSPECLETLQGDERILSILRHQNLLKELQDLALQGAKERAQQQQEQQHSSFEDELSEVFENQSPDAKHRDAAAEVPSRDTMEKRKDSDKGQQDGFEATTEGPRPQAFPEPNEGHHHHHH” as the sequence, how does the “soluble on expression in E. coli” value read?
**A.** Its value is “soluble”.

**Q.** Which “soluble on expression in E. coli” value does the source give for “MGSDKIHHHHHHCSDDDSVNEWDMSYVSLLPADYLRPTPSFTLKHVEEEGIEGSVEFQFMATTQKAVTQDINVHYSVTCDGIDANKINLSAKNLLIKAGSTASEPITLSITDWKYLENTKEALEYTLKIKIADIESTSAEVTNAAYYQEIVLKISKTAEKKKESVLLTNVKDWIFTFMTGVENSASNSVAGTGTNDVATNGVPFWLTVDFKEVKNVTGVQTTHWGAGYAPSKVEIFSSENGDDWVSIGQWDTKGRTQTITFDERVKTRYLKYQMITVPSRVDITRFYIYAW” here?
**A.** Its value is “not soluble”.

**Q.** With “MSLTDLTKANEWLKDADAVIVTAGNGMAKEEGLDILSEENFDNQFGEIAEKYDVHTIGDALDKEFDSWEEKWTFWSKLINEYSLQYEKSENMKALEKLLEDKEYFIATSTFAHFFENAGFNENRIFDAFGDWTKMQCSSGINHGQKDNREVVKQFLQGKGELPKCEDCGSPMELHMPLNAHFFPDTDANTRFRWFLTGNEEKNVVVLELGVDATSPQLLDPMVNLVQQFSNWHYIAADLANDNLPDDLKKRAIGFGSDTHETLMNLTKEGHHHHHH” as the sequence, how does the “soluble on expression in E. coli” value read?
**A.** The value was “soluble”.

**Q.** With “MSISTEQTILTQLKTIRTKRASTTGEQKWLQQHITEANLRRLLPDISIVGLHLLSELEAGPQTGIDLATNLGVTRGGVTRAAKRLVTQGLIGSFQQPDDHKKIFYRLTPSGRKLARYHDKMHATRNHQAITLLHEHYSPAELAVIQRFLADLTDYEA” as the sequence, how does the “soluble on expression in E. coli” value read?
**A.** Its value is “not soluble”.

**Q.** With “MEKLYEGKAKVLYREGPDTLRVYFKDEATAFNAQKRGVIPGKGVVNNKVSAALFRYLEAHGVKTHFLEEVSDREMRVRRVEILPLEVILRFRAAGSFARRYGLKEGTPLKMPLLEFSLKNDALGDPLICENAVLALGLTTEGELEGVKAATLRVGDLLKAFFAERGLELVDFKLEFGKVGGEILLADEISPDTMRLWDEKGEPLDKDRFRKDLGGVEEAYREVLRRVLG” as the sequence, how does the “soluble on expression in E. coli” value read?
**A.** The value was “soluble”.

**Q.** Which “soluble on expression in E. coli” value does the source give for “MDEIPADIRNEIIYYYRLSRKVLLGLYNKSIIFVLPSIVEGMPSPPLEAMACGCAVVVTDNGGVNEYIKDGLNGIVCPVRDSYCLYQKVILLINNKALREQMIQDGLETAKEFSYDNMNKNFIRLIEEVQRRKSLEHHHHHH” here?
**A.** Its value is “not soluble”.

**Q.** Which “soluble on expression in E. coli” value does the source give for “MKLLEVHILQTVAPSNLNRDDTGSPKDALFGGFRRARISSQAQKRAVRVAFRDWPLLSEEERAVRTKRLVEELLRRLAGVEEELARRAIENALNALGFGVKEGRTEYLLFLGNRELDALAQGIRENLEALSGEVKGKKKAEVPPELKKALERVLDGGKAVDLALFGRMLADRPELGVDAAAQVAHALSTHKVDREFDFYTAVDDLNPKEDTGAGMMGDVEFYSATLYRYAVVDLDKLVENLQGDKELALKGVLAFLEAFALTLPSGKQNSFAAHNPPLFVAFRAGEGMPRNLATAFEAPLRPKEEVPLSRLSAEALLKEWAKFDRVYGPLEPEWKGALDLTGAEGDGVPRLENLKALKEKAAEAVKALLGV” here?
**A.** The value was “soluble”.

**Q.** With “MTTSPDPYAALPKLPSFSLTSTSITDGQPLATPQVSGIMGAGGADASPQLRWSGFPSETRSFAVTVYDPDAPTLSGFWHWAVANLPANVTELPEGVGDGRELPGGALTLVNDAGMRRYVGAAPPPGHGVHRYYVAVHAVKVEKLDLPEDASPAYLGFNLFQHAIARAVIFGTYEQR” as the sequence, how does the “soluble on expression in E. coli” value read?
**A.** Its value is “soluble”.

**Q.** Which “soluble on expression in E. coli” value does the source give for “MNIIILAGGEGKRMGGVDKAAVAVDGRTLLDILLSQLDPEDDVVVVSPAIIDGITTVCEEPPLGGPVAGIEAGLNSFEHAHEFTAILAVDAPYSAAMLPLLQAQIGKADVAVTLAADGWVQPLCALWRSGSLEAVIHSLGETRNRPAKALLKQAGHIVEVGGDGTEKDYDTVAELEVLGNVTLPKAHLEHHHHHH” here?
**A.** The value was “not soluble”.

**Q.** Which “soluble on expression in E. coli” value does the source give for “VMRLVTLRSHDQYNTTIYAMDDRYRGVFGRRDVLFMNEQDMAAQGLEHGDRVDIHTALPGSALTLEDITVVAYGIAPGTVGAYYPEANVLVPLNYLDEESGTPSYKSVPVRLTLRSKEIRPLVGGR” here?
**A.** The value was “not soluble”.

**Q.** Which “soluble on expression in E. coli” value does the source give for “ASQFFFNQRTHLVSDVIDGAIIASPWNNLARLESDPAIRIVVRRDLNKNNVAVISGGGSGHEPAHVGFIGKGMLTAAVCGDVFASPSVDAVLTAIQAVTGEAGCLLIVKNYTGDRLNFGLAAEKARRLGYNVEMLIVGDDISLPDNKHPRGIAGTILVHKIAGYFAERGYNLATVLREAQYAASNTFSLGVALSSCHLPQETDAAPRHHPGHAELGMGIHGEPGASVIDTQNSAQVVNLMVDKLLAALPETGRLAVMINNLGGVSVAEMAIITRELASSPLHSRIDWLIGPASLVTALDMKGFSLTAIVLEESIEKALLTEVETSNWPTPVPPREITCVVSSHASARVEFQPSANALVAGIVELVTATLSDLETHLNALDAKVGDGDTGSTFAAAAREIASLLHRQQLPLNNLATLFALIGERLTVVMGGSSGVLMSIFFTAAGQKLEQGANVVEALNTGLAQMKFYGGADEGDRTMIDALQPALTSLLAQPKNLQAAFDAAQAGAERTCLSSKANAGRASYLSSESLLGNMDPGAQALAMVFKALAESELG” here?
**A.** The value was “soluble”.

**Q.** With “GPGSMRLSLLRRFCEYVPKGAPTQVSLSVETPYGVTRAFRMTEMAAAAADAERDAKGFFYLPRMDYDVGQGVAPLMSRKQFDVQYNVFHKAAVDRLNAHTLGSELEGHNLNVVIRNSSFDASHAVIHAAASEHFNYCFWYRSLRPWGTAVPARLKEELQLQYSQNGTLDAVKEVQRLFTVAALSQQSAGGWVYLVWTGKAFDVIPFDHGTCPIGSDLIPLLALNTHESARCYDYPLAAEDEEGDEVERFVRNFFKTCNWRLVEHYFLQCGRA” as the sequence, how does the “soluble on expression in E. coli” value read?
**A.** The value was “not soluble”.

**Q.** Which “soluble on expression in E. coli” value does the source give for “MNTDFQNILKQLGKQAQKEAAEKQAAEKNKQKQEQDFDFSQAVGQLSPLKNRQQYYAPPDKTPIKVRPKDNRADEENYFYIGSTYNDPPASFSKNGQGKNDIQRLKNGYYPVVTDVDLHGYTQEEAQKVLNEFIAFTQKRGVCGEIIHGSGLGSKGYKPVLKNMTRNWLMQHPDVLAYAEPREGNDGCVRILLKRKLRQQD” here?
**A.** The value was “not soluble”.

**Q.** Which “soluble on expression in E. coli” value does the source give for “FAEDPSPYVLLDRDLTMIWANAAYLRATGLARDEVVGRRMFDVFPAEAESIPDQMLRASLRRAVEQGRPDHLPLIPYPIRNQDGRMEERFWSATNTPIKDAEGHVEFILQNTNDIT” here?
**A.** Its value is “not soluble”.

**Q.** With “MKVAVTGRPGVGKTTLCLKVHESLKDKMTVGGFITKEVRRDGVRVGFKLVDLSSGNEEWLARVGEGKARVGKYAVNVEGLEEFLDSVRTDADLVIIDEVGPMELKSRKFVRFVENLMGRERLLFTIHLKSRHRLLDRIRREFKVYVIDESNRNRIAEEITRILEGLEHHHHHH” as the sequence, how does the “soluble on expression in E. coli” value read?
**A.** The value was “soluble”.

**Q.** With “MFIDTSELCDLYAEQVDVVEPIFSSFGGVSNFYGKVTTVKCFESNGLIAEVLEENGEGRVLVIDGGGAVRRGLIDAELAQLAVDNGWEGIIVYGAVRQIQQLENLDIGIHALAPIPVSADESSAGESDIPVNFGGVTFFPEDYIYADLTGIILSQEPLDLEDLEHHHHHH” as the sequence, how does the “soluble on expression in E. coli” value read?
**A.** The value was “not soluble”.

**Q.** For “MWKRLCAGLSCRKFINQVTMTSVNKNRKSRDENEMAKYNEKELADTSKFLSFVLRHKPEAIGIVLDREGWADIDKLILCAQKAGKRLTRALLDTVVATSDKKRFSYSSDGRCIRAVQGHSTSQVAISFAEKTPPQFLYHGTASRFLDEIKKQGLIAGERHYVHLSADEATARKVGARHGSPVILTVKAQEMAKRGLPFWQAENGVWLTSTVAVEFLEWLEHHHHHH”, which “soluble on expression in E. coli” value is on record?
**A.** The value was “not soluble”.

**Q.** Which “soluble on expression in E. coli” value does the source give for “SLRQDELKELERAIAEITEIAEGFGLDFYPMRYEICPADILYTFGAYGMPTRFSHWSFGKQFYKMKLHYDLGLSKIYELVINSDPCYAFLLDTNTLIQNKLIVAHVLAHSDFFKNNVRFSNTKRDMVESMAATAERIKHYEHQYGKLEVEKFLDAVLAIQEHIDPSLLRPKLSWTWEDTEVYEEEEPPKTSTPYDDLWSLDERDKLKTPPRKKRRKFPPQPEKDVLLFIEEYSRELEDWQRDILTMMREEMLYFWPQLETKIMNEG” here?
**A.** Its value is “not soluble”.

**Q.** With “MGSDKIHHHHHHMNHIMLGTTNISIFPLVFGTLPLGPLQAGLSPSEGGRLIRHALEHGVTMIDTATLYDTYPHVREGIAGWQGDVTIVTKTHANDGPTARAHVEKGLRELGRERLDIVHLHGARVADPFSDRADVLAELLRMKDEGKIGHVGLSSHYICAILKAADHPEIEVVHPLINRTGMGILDGSAAEMAEAIAACARAGKGVYAMKALAGGNLIAEARASLAYVRGLEGVHGVAIGMLSEAEVEANIALFSGNAPEDEVWRQLESRRRKLRIMENFCKGCGGCVEACASGALTVVNGKAVLDEAACILCGYCAASCPEFIIRVV” as the sequence, how does the “soluble on expression in E. coli” value read?
**A.** Its value is “not soluble”.

**Q.** For “MKMFQKMCASTVIITTLLGIGGTVNSVHADSIEQQSKLGIDQETDKQIIVKFKADLKFPYEDGIEKQIQSQTNDKVLEDLLVEYPDVTFTRLFTSVSPEEIEDLEVKAPNNVSTSLLNYYILQTQNGEQKEELVDRLKKSCLIEDVYMKKQEKITPPEVQPSSVSLSPNNNPRFKQQGYLEAAPYGINAPFAWEVQGGKGSGITFVDMEYGWLLNHEDLVHQNIELMSGINIDQHVGHGTSVLGIVSSEDNEVGNIGIAPKAKAKVISQIRDNGQYNTADAILSAVNQLEAGDVLLLEAQASFDGYGDKYLPVEVQPDIFDAIRAGTDKGVVIIEAGANGWNDLDQFKDRNGKQILNRNSKDFKDSGAIMVGAGSSSFPHGRMWFSNYGSRIDVYGWGENVDTTTAEQSRSAVNLYTSSFSGTSSASPIIAGAATLVQSIAKENLGQPYRPSELRAILSNENTGTKSKDPYADQIGVLPDLKSILVNLGYGQRKPNGGNELQVTENEPNNERIQANKVNFHTPMKGTLHNSDRVDVFTFQMDSPENITISLLNEQNIGMTWVLHHESDLNNYVAYGENEGNVVKGTYHAKPGKYYLYVYKYENKDGSYVLNIK”, which “soluble on expression in E. coli” value is on record?
**A.** The value was “not soluble”.

**Q.** With “SFPNRRIVTTVFNDEGIQFLVTRYIKALNPPQQLLDIFLHNSNATFDLIARFVSLIPFVPNTPDENDGSDIWMTSEHCISLAIGNKEEHAILLCNFFLYFGKKALVLLGTSVLEGHVAYVVTQETNEYLLWNPSTGQCYKQFDPFCPLKSVDCLFDDRNVWFNIQQNNTPMAVFFDYSKESFWKQLLPKNVQGTKIQSIQVTGFPIQMPYIDVQSIIDAVYQTGIHSAEFPQTEFALAVYIHPYPNNILSVWVYLASLVQHQ” as the sequence, how does the “soluble on expression in E. coli” value read?
**A.** Its value is “soluble”.

Reference: the DeepSol protein solubility set
